Here are results for 15 molecules from US20110229406A1 (U3 PHARMA, published 2011).

In one test the target is T1, HER-3 (human, on cells) (human, UniProt P21860 20-1342).
T1 construct: whole, on cells; also called ErbB3; HER-3+ cell lines
The test can be described thus: indirect FACS Scatchard analysis on cells.

The target of test [1] is T2, reduced, denatured HER-3-His tagged purified ECD protein (human, UniProt P21860 20-643).
T2 construct: extracellular domain; Same protein as m2, but reduced and denatured (disulfide bonds broken); not shown: His tag
The test can be described thus: dot blot of reduced, denatured HER-3-His ECD.

Test [2] concerns the target T3, rat HER-3 ECD (V5-His fusion protein) (rat, UniProt Q62799 20-643).
T3 construct: extracellular domain; not shown: V5-His tag
The test can be described thus: ELISA, column Rat XR (XR = cross-reactive). For orientation: ELISA stands for enzyme-linked immunosorbent assay.

T3 sequence (Q62799 20-643): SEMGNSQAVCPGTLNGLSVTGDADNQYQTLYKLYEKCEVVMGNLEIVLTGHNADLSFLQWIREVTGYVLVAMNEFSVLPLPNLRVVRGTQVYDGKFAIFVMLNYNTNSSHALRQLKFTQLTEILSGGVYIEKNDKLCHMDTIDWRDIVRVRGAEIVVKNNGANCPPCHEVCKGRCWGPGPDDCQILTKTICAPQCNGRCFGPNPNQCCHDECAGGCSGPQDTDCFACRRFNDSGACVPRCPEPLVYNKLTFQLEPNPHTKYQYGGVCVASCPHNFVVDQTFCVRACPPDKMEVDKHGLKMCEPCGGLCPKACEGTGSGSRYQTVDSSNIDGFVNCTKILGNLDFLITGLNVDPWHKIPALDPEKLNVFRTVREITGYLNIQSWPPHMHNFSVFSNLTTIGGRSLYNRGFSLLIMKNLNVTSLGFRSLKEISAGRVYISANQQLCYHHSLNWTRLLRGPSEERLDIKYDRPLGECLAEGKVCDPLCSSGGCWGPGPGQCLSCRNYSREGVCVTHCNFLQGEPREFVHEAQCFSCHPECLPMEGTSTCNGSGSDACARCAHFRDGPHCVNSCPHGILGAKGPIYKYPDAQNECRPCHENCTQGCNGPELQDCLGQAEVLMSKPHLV
Protocol for HER-3 (human, on cells): Therefore, 10⁵ cells of interest or SK-Br 3 cells were harvested with 10 mM EDTA in PBS, washed once with FACS buffer (PBS, 3% FCS, 0.4% azide) and seeded on a 96-well round bottom plate. The cells were spun for 3 min at 1000 rpm to remove supernatant and then resuspended with α-HER-3 antibody (3 μg/ml) or with antibody dilutions (100 μl/well) starting with 20 μg/ml human monoclonal antibody in FACS buffer, diluted in 1:2 dilution steps. Cell suspensions were incubated on ice for 1 hr, washed twice with FACS buffer and resuspended with secondary antibody (100 μl/well) donkey-anti-human-PE (Jackson) diluted 1:50 in FACS buffer. The cell suspensions were incubated on ice and in the dark for 30 min, washed twice with FACS buffer and analyzed (FACS, Beckman Coulter). According to the FACS Scatchard analysis, the fluorescence mean was calculated for each measurement. Background staining (=without 1st antibody) was subtracted from each fluorescence mean. Scatchard plot with x-value=fluorescence mean and y-value=fluorescence mean/concentration of mAb (nM) was generated.

B1: U1-39 (antibody, V domains shown)
VH: EVQLVESGGGLIQPGGSLRLSCAASGFTVSSNYMSWVRQAPGKGLDWVSVIYSGGSTYYADSVKGRFTISRDNSKNTLYLQMNSLRAEDTAVYYCARGQWLDVWGQGTTVTVSS
VL: DIVMTQSPLSLPVTPGEPASISCRSSQSLLHSNGYNYLDWYLQRPGQSPQLLFYLGFHRASGVPDRFSGSGSGTDFTLKISRVEAEDVGVYYCRQALQTPLTFGGGTKVEIK
For B1, in the test with HER-3 (human, on cells), the Kd (usually a measure of binding affinity in units of concentration) is 102 nM.

B2: U1-43 (antibody, V domains shown)
VH: QVQLQESGPGLVKPSQTLSLTCTVSGGSISSGGYYWSWIRQHPGKGLEWIGYIYYSGSTYYNPSLRSRVTISVDTSKNQFSLKLSSVTAADTAVYYCARDREREWDDYGDPQGMDVWGQGTTVTVS
VL: DIQMTQSPSSLSASVGDRVTITCRASQSISSYLHWYQQKPGKAPKLLIHAASSLQSGVPSRFSGSGSGTDFTLTISSLQPEDFATYYCQQSYSNPLTFGGGTKVEIQ
B2 gave a Kd with HER-3 (human, on cells) of 0.57 nM.

B3: U1-61 (antibody, V domains shown)
VH: QVQLQESGPGLVKPSQTLSLTCTVSGVSISSGGYYWSWIRQHPGMGLEWIGYIYYSGSTYYNPSLKSRVTISEDTSKNQFSLKLSSVTAADTAVYYCARDSESEYSSSSNYGMDVWGQGTTVTVS
VL: DIQMTQSPSSLSASVGDRITITCRASQTISSYLNWYQQKPGKAPKLLIYAASSLQGGVPSRFSGSVSGTDFTLTVSSLQPEDFATYYCQQSYSNPLTFGGGTKVEIK
In the test with HER-3 (human, on cells), B3 returned a Kd of 0.13 nM.

B4: U1-44 (antibody, V domains shown)
VH: EVQLVQSGAEVKKPGESLKISCKGSGYSFTSYWIGWVRQMPGKGLEWMGIIWPGDSDTIYSPSFQGQVTISADKSISTAYLQWSSLKASDTAMYYCARHENYGDYNYWGQGTLVTVSS
VL: DIQMTQSPSSLSASVGDRVTITCRASQSIRSYLNWYQQKPGNAPKLLIYAASSLQSGVPSRFSGSGSGTDFTLTISSLQPEDFALYYCQQSISSPLTFGGGTKVEIK
B4 showed a Kd with HER-3 (human, on cells) of 4 nM.

B5: U1-47 (antibody, V domains shown)
VH: QVQLQQSGPGLVKPSQTLSLTCAISGDSVSSNSAAWNWIRQSPSRGLEWLGRTYYRSKWYNDYAVSVKSRITINPDTSKNQFSLQLNSVTPEDTAVYYCARDYYGSGSFYYYYGMDVWGQGTTVTVS
VL: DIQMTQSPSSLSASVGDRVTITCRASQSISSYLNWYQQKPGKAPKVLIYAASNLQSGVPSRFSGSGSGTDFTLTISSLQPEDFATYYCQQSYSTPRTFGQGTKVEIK
Turning to B5, in the test with HER-3 (human, on cells), the affinity, expressed as Kd, was 9.38 nM.

B6: U1-53 (antibody, V domains shown)
VH: EVQLVESGGGLVQPGGSLRLSCAASGFTFSIYSMNWVRQAPGKGLEWVSYISSSSSTIYYADSVKGRFTISRDNAKNSLYLQMNSLRDEDTAVYYCARDRGDFDAFDIWGQGTMVTVSS
VL: DIQMTQSPSSLSASVGDRVTITCQASQDITNYLNWYQQKPGKAPKLLIYDASNLETGVPSRFSGSGSGTDFTFTISSLQPEDIATYNCQQCENFPITFGQGTRLEIK
notes: also called mAb U1-53
Consider B6, for which the binding result in test [1] and in test [2] was “no binding” in each case. Besides, the Kd in the test with HER-3 (human, on cells) was determined as 0.082 nM.

B7: U1-62 (antibody)
chain 1: EVQLVQSGAEVKKPGESLKISCKGSGYSFTSYWIGWVRQMPGKGLEWMGIIYPGDSDTRYSPSFQGQVTMSADKSISTAYLQLSSHEGLGHRHVLLCETDGWKLRTSRVIETSWGQGTTVTVS
chain 2: not shown
Molecule B7 gave a Kd with HER-3 (human, on cells) of 20.4 nM.

B8: U1-41 (antibody, V domains shown)
VH: QVQLQESGPGLVKPSQTLSLTCTVSGGSISSGGYYWSWIRQHPGKGLEWIGYIYYSGSTYYNPSLKSRVTISVDTSKNQFSLKLSSVTAADTAVYFCARDRELEGYSNYYGVDVWGQGTTVTVS
VL: DIQMTQSPSSLSASVGDRVTITCRASQAISNYLNWYQQKPGKAPKLLIYAASSLQSGVPSRFSGSGSGTDFTLTISSLQPEDFATYYCQQNNSLPITFGQGTRLEIK
B8 yielded a Kd with HER-3 (human, on cells) of 0.18 nM.

B9: U1-51 (antibody, V domains shown)
VH: QVQLQESGPGLVKPSETLSLTCTVSGGSISSYYWSWIRQPPGKGLEWIGYIYYSGSTNYNPSLKSRVTISVDTSKHQFSLKLSSVTAADTAVYYCARDSSYYDSSGYYLYYYAMDVWGQGTTVTVS
VL: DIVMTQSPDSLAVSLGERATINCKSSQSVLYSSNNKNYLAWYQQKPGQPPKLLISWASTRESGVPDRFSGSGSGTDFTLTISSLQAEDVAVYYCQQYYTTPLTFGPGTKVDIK
In the test with HER-3 (human, on cells), B9 returned a Kd of 132 nM.

B10: U1-24 (antibody, V domains shown)
VH: QVQLQESGPGLVKPSQTLSLTCTVSGGSISSGDYYWSWIRQHPGKGLEWIGYIYYSGSTYYNPSLKSRVTISVDTSKNQFSLKLSSVTAADTAVYYCARADYDFWNGYFDYWGQGTLVTVSS
VL: DIQMTQSPSSLSASVGDRVTITCRASQGIRNDLGWYQQKPGKAPKRLIYAASSLQSGVPSRFSGSGSGTEFTLTISSLQPEDFATYYCLQHNNYPWTFGQGTKVEIK
With B10, the Kd with HER-3 (human, on cells) stood at 0.06 nM.

B11: U1-7 (antibody, V domains shown)
VH: QVQLQESGPGLVKPSQTLSLTCTVSGGSISSGDYYWSWIRQHPGKGLEWIGYIYYSGSTYYNPSLKSRVTISVDTSKNQFSLKLSSVTAADTAVYYCARADYDFWSGYFDYWGQGTLVTVSS
VL: DFQMTQSPSSLSASVGDRVTITCRASQDIRNDLGWYRQKPGKAPKRLIYAASSLQSGVPSRFSGSGSGTEFTLTISSLQPEDFATYYCLQHNSYPWTFGQGTKVEIK
Turning to B11, the Kd in the test with HER-3 (human, on cells) stood at 0.02 nM.

B12: U1-49 (antibody, human IgG1, V domains shown)
VH: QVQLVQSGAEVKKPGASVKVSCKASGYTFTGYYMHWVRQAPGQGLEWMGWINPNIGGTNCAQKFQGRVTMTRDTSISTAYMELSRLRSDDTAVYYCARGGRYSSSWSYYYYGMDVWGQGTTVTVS
VL: DILMTQTPLSLSVTPGQPASISCKSSQSLLLSDGGTYLYWYLQKPGQPPQLLIYEVSNRFSGVPDRFSGSGSGTDFTLKISRVEAEDVGVYYCMQSMQLPITFGQGTRLEIK
notes: also called human IgG1 HER-3 mAb, U1-49
Take B12: the binding result in test [1] and in test [2] was “no binding” in each case. The molecule further yielded a Kd with HER-3 (human, on cells) of 1 nM.

B13: U1-55.1 (antibody, V domains shown)
VH: QVQLQESGPGLVKPSETLSLTCTVSGGSVSSGGYYWNWIRQPPGKGLEWIGYINYSGSTNYNPSLKSRVTISVDTSKNQFSLKLSSVTAADTAVYYCARDRELELYYYYYGMDVWGQGTTVTVS
VL: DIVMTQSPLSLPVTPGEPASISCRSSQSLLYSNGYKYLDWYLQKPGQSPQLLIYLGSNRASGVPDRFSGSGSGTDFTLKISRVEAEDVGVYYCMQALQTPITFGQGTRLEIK
In the test with HER-3 (human, on cells), B13 yielded a Kd of 3.7 nM.

B14: U1-59 (antibody, human IgG1, V domains shown)
VH: QVQLQQWGAGLLKPSETLSLTCAVYGGSFSGYYWSWIRQPPGKGLEWIGEINHSGSTNYNPSLKSRVTISVETSKNQFSLKLSSVTAADTAVYYCARDKWTWYFDLWGRGTLVTVSS
VL: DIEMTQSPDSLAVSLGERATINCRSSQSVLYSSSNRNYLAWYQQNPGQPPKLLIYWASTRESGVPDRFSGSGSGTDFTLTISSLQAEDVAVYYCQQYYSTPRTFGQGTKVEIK
notes: human IgG1 (gamma 1 constant) with human kappa constant region; also called mAb U1-59; IgG1 mAb consisting of the VH4-34 and the B3 kappa chain
In turn, B14 showed a Kd with HER-3 (human, on cells) of 3.69 nM. Also, the binding result in test [2] is “binds”.

B15: U1-58 (antibody, V domains shown)
VH: QVQLVESGGGVVQPGRSLRLSCAASGFTFSSYGMHWVRQAPGKGLEWVAVIWYDGSNKYYADSVKGRFTISRDNSKNTLYLQMNSLRAEDTAVYYCARAARLDYYYGMDVWGQGTTVTVSS
VL: DIQMTQSPSSLSASVGDRVSITCRASQSINSYLNWFQQKPGKAPQLLIFGASGLQSGVPSRFSGSGSGTDFTLTINSLQPEDFATYYCQQSYSSPLTFGQGTRLEIK
As for B15, the Kd in the test with HER-3 (human, on cells) turned out to be 6.4 nM.
